Measured values from patent US20040253577A1 (SCHERING, published 2004).

Target: the molecule itself
Assay: size exclusion chromatography (Superdex 75), self-association

B1: HCV NS3 helicase subdomain I (181-324,R257E) mutant (enzyme)
chain: SPVFTDNSSPPAVPQSFQVAHLHAPTGSGKSTKVPAAYAAQGYKVLVLNPSVAATLGFGAYMSKAHGVDPNIRTGVETITTGSPITYSTYGKFLADGGCSGGAYDIIICDECHSTDATSILGIGTVLDQAETAGARLVVLATAT
notes: also called subdomain I mutant; product of pNS3(181-324,R257E)
binding result: no binding (tested: 6 mg/ml)
